One assay has as its target hFcγR3A 176V (human) (UniProt P08637). The experiment in a line: BLI, Hu Fc3A 176V. On the technique in general: In BLI a coated tip is dipped into the sample, and binding shifts an interference pattern.
Assay [1] addresses human FcγR1 (hFcγR1) (human) (UniProt P12314). The experiment in a line: BLI, Hu Fc1.
Assay [2] deals with hFcγR2B (human) (UniProt P31994). The experiment in a line: BLI, Hu Fc2B.
The target in the next assay is Hu Fc3A 176F. The experiment in a line: BLI, Hu Fc3A 176F.
Chain of Hu Fc3A 176F (chain, as listed by the source limits assumed): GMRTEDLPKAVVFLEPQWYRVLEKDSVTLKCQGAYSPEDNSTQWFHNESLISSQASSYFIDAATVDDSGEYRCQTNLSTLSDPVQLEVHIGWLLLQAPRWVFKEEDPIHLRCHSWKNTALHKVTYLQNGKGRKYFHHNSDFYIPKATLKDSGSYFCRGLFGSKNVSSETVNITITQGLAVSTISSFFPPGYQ
The target of assay [3] is hFcγR2A 167R (human) (UniProt P12318). The experiment in a line: BLI, Hu Fc2A 167R.
Chain of hFcγR2A 167R (human) (P12318 36-218 H167R): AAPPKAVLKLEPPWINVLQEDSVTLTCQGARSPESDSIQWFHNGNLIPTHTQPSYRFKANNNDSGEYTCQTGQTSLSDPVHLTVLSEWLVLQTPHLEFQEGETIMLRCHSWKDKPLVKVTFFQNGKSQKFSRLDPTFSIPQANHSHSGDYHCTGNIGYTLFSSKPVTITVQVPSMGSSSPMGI
Assay [4] has as its target hFcγR2A 167H (human) (UniProt P12318). The experiment in a line: BLI, Hu Fc2A 167H.
For assay [5], the target named is cynomolgus FcγRI (cyno FcγR1) (cynomolgus). The experiment in a line: BLI, His-cyno FcR1.
Chain of cynomolgus FcγRI (cyno FcγR1) (cynomolgus) (A0A2K5 entry or part of it limits assumed): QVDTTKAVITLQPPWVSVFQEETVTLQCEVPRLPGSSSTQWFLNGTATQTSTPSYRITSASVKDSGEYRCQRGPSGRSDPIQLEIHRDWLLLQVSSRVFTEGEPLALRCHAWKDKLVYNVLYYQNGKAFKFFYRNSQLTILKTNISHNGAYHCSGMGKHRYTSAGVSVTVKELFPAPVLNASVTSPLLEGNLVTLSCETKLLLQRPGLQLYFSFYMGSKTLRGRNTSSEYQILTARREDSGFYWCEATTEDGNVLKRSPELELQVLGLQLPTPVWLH
The target in assay [6] is hFcγR2B (human) (UniProt P31994). The experiment in a line: BLI, Bio-hFcR2B.
Assay [7] addresses human FcγR1 (hFcγR1) (human) (UniProt P12314). The experiment in a line: BLI, Bio-hFcR1.
Assay [8] has the same target. The experiment in a line: BLI, His-hFcR1.
The target of assay [9] is hFcγR2A 167R (human) (UniProt P12318). The experiment in a line: BLI, Bio-hFcR2A 167R.
Assay [10] has as its target hFcγR2A 167H (human) (UniProt P12318). The experiment in a line: BLI, Bio hFcR2A 167H.
Assay [11] concerns the target hFcγR2B (human) (UniProt P31994). The experiment in a line: BLI, FcR2B, 600nM IgG.
Assay [12] has the same target. The experiment in a line: BLI, FcR2B, 450nM IgG.
Assay [13] has as its target human FcγR1 (hFcγR1) (human) (UniProt P12314). The experiment in a line: BLI, FcR1, 10nM IgG.
Assay [14] deals with hFcγR2A 167H (human) (UniProt P12318). The experiment in a line: BLI, FcR2A 167H, 600nM IgG.
Chain of hFcγR2A 167H (human) (P12318 36-218): as the sequence (P12318 36-218 H167R) above, with R132H counted along it
Assay [15] has as its target hFcγR2A 167R (human) (UniProt P12318). The experiment in a line: BLI, FcR2A 167R, 600nM IgG.
Assay [16] deals with hFcγR2A 167H (human) (UniProt P12318). The experiment in a line: BLI, FcR2A 167H, 450nM IgG.
In assay [17] the target is human FcγR1 (hFcγR1) (human) (UniProt P12314). The experiment in a line: BLI, FcR1, 50nM IgG.
Chain of human FcγR1 (hFcγR1) (human) (P12314 16-288 limits assumed): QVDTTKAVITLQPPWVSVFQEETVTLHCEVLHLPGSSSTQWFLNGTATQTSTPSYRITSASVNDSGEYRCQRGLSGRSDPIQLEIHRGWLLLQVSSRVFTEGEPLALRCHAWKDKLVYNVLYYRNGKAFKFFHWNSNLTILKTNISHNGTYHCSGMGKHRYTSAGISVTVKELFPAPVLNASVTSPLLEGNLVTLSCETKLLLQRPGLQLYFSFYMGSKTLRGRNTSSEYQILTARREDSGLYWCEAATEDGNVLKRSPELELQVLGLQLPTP
The target in assay [18] is hFcγR3B (human) (UniProt O75015). The experiment in a line: BLI, FcR3B, 450nM IgG.
Chain of hFcγR3B (human) (O75015 17-200 limits assumed): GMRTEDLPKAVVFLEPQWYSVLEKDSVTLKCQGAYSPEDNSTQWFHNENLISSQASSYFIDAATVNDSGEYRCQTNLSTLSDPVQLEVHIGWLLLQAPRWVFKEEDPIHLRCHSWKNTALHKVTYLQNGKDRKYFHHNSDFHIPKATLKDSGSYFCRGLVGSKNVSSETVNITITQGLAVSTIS
The target of assay [19] is hFcγR2A 167R (human) (UniProt P12318). The experiment in a line: BLI, FcR2A 167R, 450nM IgG.
The target in assay [20] is human FcγR1 (hFcγR1) (human) (UniProt P12314). The experiment in a line: BLI, FcR1, 25nM IgG.
Assay [21] deals with hFcγR3B (human) (UniProt O75015). The experiment in a line: BLI, FcR3B, 600nM IgG.

Chain of hFcγR2B (human) (P31994 46-217): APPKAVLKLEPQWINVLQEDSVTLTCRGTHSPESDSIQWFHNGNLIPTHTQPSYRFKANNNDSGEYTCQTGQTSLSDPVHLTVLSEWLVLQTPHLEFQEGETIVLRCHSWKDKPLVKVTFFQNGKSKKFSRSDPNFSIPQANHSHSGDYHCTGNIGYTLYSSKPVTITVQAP
Chain of hFcγR3A 176V (human) (P08637 17-208 F176V limits assumed): as the sequence (chain, as listed by the source limits assumed) above, with F160V counted along it

Ab5 EPLVLAdelG (antibody): the normalized binding response is 16 % of WT in the assay with hFcγR3A 176V (human); 1 % of WT in assay [1]; 10 % of WT in the assay with hFcγR2B (human) [2]; 9 % of WT with Hu Fc3A 176F; 15 % of WT in the assay with hFcγR2A 167R (human) [3]; 66 % of WT in the assay with hFcγR2A 167H (human) [4].
Ab5 CH2 deleted (antibody): the normalized binding response with hFcγR2B (human) [2] is 1 % of WT.
On to Ab2 D265C N297Q (antibody), for which the Normalized Response in assay [5] was 7 % of WT.
Turning to Ab5 (anti-CD45 antibody) LALA variant, the normalized binding response with hFcγR3A 176V (human) was 34 % of WT; with hFcγR2B (human) [2] it was 3 % of WT; with Hu Fc3A 176F, 19 % of WT; with hFcγR2A 167R (human) [3], 2 % of WT; in the assay with hFcγR2A 167H (human) [4], 4 % of WT.
Consider Ab5 D265C.H435A (antibody), for which the figures for the normalized binding response (in [1]; in the assay with hFcγR2B (human) [2]) were 33 % of WT and 3 % of WT, respectively.
With Ab5 D265A.H435A (antibody), the normalized binding response is 35 % of WT in assay [1], 1 % of WT with hFcγR2B (human) [2] and 3 % of WT with hFcγR2A 167H (human) [4].
As for “Ab5 (anti-CD45 antibody) D265C.N297A.H435A variant”, the normalized binding response with hFcγR2B (human) [2] was 2 % of WT.
As for Ab5 LALA.P331G (antibody), the normalized binding response with hFcγR2B (human) [2] is 8 % of WT; in the assay with hFcγR2A 167R (human) [3], 1 % of WT.
“rIgG2a (rat IgG2a isotype control) (antibody)”: the normalized binding response in the assay with hFcγR2B (human) [2] was 8 % of WT; with Hu Fc3A 176F, 1 % of WT; in the assay with hFcγR2A 167R (human) [3], 74 % of WT; in the assay with hFcγR2A 167H (human) [4] it was 3 % of WT.
With Ab5 D265C.LALA.P329G.H435A (antibody), the normalized binding response in assay [1] was 4 % of WT; with Hu Fc3A 176F, 1 % of WT.
As to Ab5 LALA.P329G (antibody), the normalized binding response with hFcγR2A 167R (human) [3] is 2 % of WT.
Ab5 (anti-CD45 antibody) D265A variant: the normalized binding response was 40 % of WT in assay [1], 2 % of WT with hFcγR2B (human) [2] and 2 % of WT with hFcγR2A 167H (human) [4].
Regarding Ab2 D265C N297Q H435A (antibody), in assay [5], the Normalized Response is 7 % of WT.
In the case of Isotype WT (antibody), the Normalized Response with hFcγR2B (human) [6] is 95 % of WT; in [7], 91 % of WT; in assay [8], 85 % of WT; in [5], 82 % of WT; with hFcγR2A 167R (human) [9], 102 % of WT; in the assay with hFcγR2A 167H (human) [10], 90 % of WT.
As for YTH24.5 (anti-CD45 rIgG2b) (antibody), the normalized binding response in [1] is 121 % of WT; with hFcγR2B (human) [2], 120 % of WT; with Hu Fc3A 176F, 62 % of WT; in the assay with hFcγR2A 167R (human) [3] it was 56 % of WT; with hFcγR2A 167H (human) [4], 150 % of WT.
As to “naked (un-conjugated) antibody (i.e., the isotype control) of FIGS. 1D and 1E”, the % Binding vs Wild Type hIgG1 (in the assay with hFcγR2B (human) [11]; with hFcγR2B (human) [12]; in [13]; with hFcγR2A 167H (human) [14]; with hFcγR2A 167R (human) [15]; with hFcγR2A 167H (human) [16]) was 100% throughout. Also, the % Binding vs Wild Type hIgG1 (in [17]; in the assay with hFcγR3B (human) [18]; in the assay with hFcγR2A 167R (human) [19]; in assay [20]; with hFcγR3B (human) [21]) was 100% in each case.

Values taken from patent US20240075157A1.
